{"source": "the nanobody polyreactivity screen of Harvey et al. (2022)"}
{"experiment": "yeast display, Sf9 membrane polyspecificity reagent, FACS + sequencing; frameworks hold sequencing errors", "summary_of_the_method": "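In a synthetic yeast display library (Saccharomyces cerevisiae BJ5465), nanobody expression was induced with galactose for 36–48 hours. FACS gates were set low and high (top ~1%) using anti-HA fluorescence for expression and streptavidin fluorescence for binding of the Sf9 membrane reagent. Each polyreactivity label is drawn from the gate of origin.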"}
{"sequence": "QVQLVESGGGLVQAGGSLRLSCAASGRIFSTYVMGWYRQAPGKERELVAAITWSGGSTYYADSVKGRFTISRDNAKNTVYLQMNSLKPEDTAVYYCAADEIYRYGYWGQGTLVTVSS", "polyreactivity (PSR sort gate)": "high polyreactivity"}
{"sequence": "QVQLVESGGGLVQAGGSLRLSCAASGRIFSVYAMGWYRQAPGKERELVAAITRVGSTNYADSVKGRFTISRDNAKNTVFLLMNSLKQEDTAVYYCARTYSTRGYYYWGQGTQVTVSS", "polyreactivity (PSR sort gate)": "high polyreactivity"}
{"sequence": "QVQLVESGGGLVQAGGSLRLSCAASGRIFSVYAMGWYRQAPGKERELVAAITRVGSTNYADSVKGRFTISRDNAKNTVYLQMNSLKPEDTAVYYCAAVARTVPSYSYNYWGQGTQVTVSS", "polyreactivity (PSR sort gate)": "high polyreactivity"}
{"sequence": "QVQLVESGGGLVQAGGSLRLSCAASGRIFSVYAMGWYRQAPGKERELVASIRSRGSSTYYADSVKGRFTISRDNAKNTVYLQMNSLKPEDTAVYYCAVDVLTVGQSYDHWGQGTQVTVSS", "polyreactivity (PSR sort gate)": "high polyreactivity"}
{"sequence": "QVQLVESGGGLVQAGGSLRLSCAASGRIFSVYDMGWYRQAPGKERELVAAIDTSDGSTNYADSVKGRFTISRDNAKNTVYLQMNSLKPEDTAVYYCNATDSYVPFDYWGQGTQVTVSS", "polyreactivity (PSR sort gate)": "low polyreactivity"}
{"sequence": "QVQLVESGGGLVQAGGSLRLSCAASGRIFSWYAMGWYRQAPGKERELVAAISWRGGSTYYADSVKGRFTISRDNAKNTVYLQMNSLKPEDTAVYYCIGGPGGYDYWGHGTQVTVSS", "polyreactivity (PSR sort gate)": "low polyreactivity"}
{"sequence": "QVQLVESGGGLVQAGGSLRLSCAASGRIFSYAMGWYRQAPGKERELVAAINWSGDSTYYADSVKGRFTISRDNAKNTVYLQMNSLKPEDTAVYYCNAVSAYWGAYGYWGQGTQVTVSS", "polyreactivity (PSR sort gate)": "high polyreactivity"}
{"sequence": "QVQLVESGGGLVQAGGSLRLSCAASGRIFSYNAMGSDRQAPGKERELVADISSGGSTYYADSVKGRFTISRDNAKNSVYLQMNSLKPEDSAVYYCNADYYAFPWTNEYWGQGTQVTVSS", "polyreactivity (PSR sort gate)": "high polyreactivity"}
{"sequence": "QVQLVESGGGLVQAGGSLRLSCAASGRIFSYNAMGWYRQAPGKERELVAAITFSGGGTYYADSVKGRFTISRDNAKNTVYLQMNSLKPEDTAVYYCAADVPPKYRHRYNLYDYWGQGTQVTVSS", "polyreactivity (PSR sort gate)": "low polyreactivity"}
{"sequence": "QVQLVESGGGLVQAGGSLRLSCAASGRIFSYYAMGWYRPAPGKERELVAAISSSGGSTYYADSVKGRFTISRDNAKNTVYLQMNSLKPEDTAVYYCRVYTRGEYYSWGQGTQVTVSS", "polyreactivity (PSR sort gate)": "high polyreactivity"}
{"sequence": "QVQLVESGGGLVQAGGSLRLSCAASGRIFSYYAMGWYRQAPGKERELVAAIRWSGGRTYYADSVKGRFTISRDNAKNTVYLQMNSLKPEDTAVYYCAAEGAYRLAYDYWGQGTQVTVSS", "polyreactivity (PSR sort gate)": "high polyreactivity"}
{"sequence": "QVQLVESGGGLVQAGGSLRLSCAASGRIFSYYAMGWYRQAPGKERELVATIDRSGDPTSYADSVKGRFTISRDNAMNTVYLKMNSLKPEDTAVYYCAATSKRARYDSWGQGTQVTVSS", "polyreactivity (PSR sort gate)": "high polyreactivity"}
{"sequence": "QVQLVESGGGLVQAGGSLRLSCAASGRIFSYYAMGWYRQAPGKEREMVAAISGNGGSTYYADSVKGRFTISRDNAKNTVYLQMNSLKPEDTAVYYCAADWWSSDWAYLYPYSYDYWGQGTQVTVSS", "polyreactivity (PSR sort gate)": "low polyreactivity"}
{"sequence": "QVQLVESGGGLVQAGGSLRLSCAASGRIFSYYAMGWYRQAPWKERELVAAISSSGGSTYYADSVKGRFTISRDNAKNTVYLQMNSLKPEDTEVYYCAKLLYGFGRYGYWGQGTQVTVSS", "polyreactivity (PSR sort gate)": "high polyreactivity"}
{"sequence": "QVQLVESGGGLVQAGGSLRLSCAASGRIFSYYDMGWYRQAPGKERELVATIRWSTSSTYADSVKGRFTISRDNAKPTVYLQMNILKPEDTAVYYCNAQYSQVNGYDYWGQGTQVTVSS", "polyreactivity (PSR sort gate)": "low polyreactivity"}
{"sequence": "QVQLVESGGGLVQAGGSLRLSCAASGRIFSYYTLGWYRQAPGKERELVAAIRISSGGTYYADSVKGRFTISRDNAKNTVYLQMNSLKPEDTAVYYCAARYYGFPSKYDYWGQGTQVTVSS", "polyreactivity (PSR sort gate)": "high polyreactivity"}
{"sequence": "QVQLVESGGGLVQAGGSLRLSCAASGRIFSYYVMGWNRQAPGKERELVAAITSGGSTNYADSEKGRFTISRDNAKNTVYLQMNSLKPEDTAVYYCNRAYTYINRLYGYWGQGTQVTVSS", "polyreactivity (PSR sort gate)": "high polyreactivity"}
{"sequence": "QVQLVESGGGLVQAGGSLRLSCAASGRIFTANAMGWYRQAPGKERELVAAISWRGGSTYYADSVKGRFTISRDNAKNSVYLQLNSLKPEDTAVYYCAAQRYAPYRYEYWGQGTHVTVSS", "polyreactivity (PSR sort gate)": "high polyreactivity"}
{"sequence": "QVQLVESGGGLVQAGGSLRLSCAASGRIFTAYAMGWYRQAPGKERELVASITTSGTTYYADSVKGRFTISRDNSKNTVYLQMNSLKPEDTAVYYCAADYYGYVQGGIQYGYYYLGQGTQVTVSS", "polyreactivity (PSR sort gate)": "low polyreactivity"}
{"sequence": "QVQLVESGGGLVQAGGSLRLSCAASGRIFTAYHMGWYRQAPGKESELVAAITRSSGSTYYADSVKGRFTISRDNAKNTVYLQMIRLKPEVTAVYYCATDGEFWGYDSWGQGTQVTVSS", "polyreactivity (PSR sort gate)": "low polyreactivity"}
{"sequence": "QVQLVESGGGLVQAGGSLRLSCAASGRIFTDYTMGWYRHAPGKERELDAAISKGGSGTYYADSVKGRFTISRDNAKNTVYLQMNSLKPEDTAVYYCNKVISTGEYDYWGQGTQVTVSS", "polyreactivity (PSR sort gate)": "low polyreactivity"}
{"sequence": "QVQLVESGGGLVQAGGSLRLSCAASGRIFTFYAMGWYRQAPGKARELVASITGGGNTYYADSVKGRFTISRDNAKNTVYLQMNSLKPEDTAVYYCAAGFSYFTSVLSLDRYYYWGQGTQVTVSS", "polyreactivity (PSR sort gate)": "low polyreactivity"}
{"sequence": "QVQLVESGGGLVQAGGSLRLSCAASGRIFTFYAMGWYRQAPGKERELVAAISSGGSTYYADSVKGRFTISRDNAKNTVFLQMNILKPEDTAVYYCAAVPVWYADYDYWGQGTQVTVSS", "polyreactivity (PSR sort gate)": "low polyreactivity"}
{"sequence": "QVQLVESGGGLVQAGGSLRLSCAASGRIFTFYARGLDRQAPGKEREMVAAISSGGSTYYADSVKGRFTISRDNAKNTVYLQMNSLKPEDTAVYYCATQGARYYHTYGYWGQGTLVTVSS", "polyreactivity (PSR sort gate)": "low polyreactivity"}
{"sequence": "QVQLVESGGGLVQAGGSLRLSCAASGRIFTGNAMGWYRQAPGKERELVAAITGRGGNTYYADSGKGRFTISRDNAKNTVYLLMNSLKPEDTAGYYGAKVFFHTPIVPEYDYWGQGTHVTVSS", "polyreactivity (PSR sort gate)": "low polyreactivity"}
{"sequence": "QVQLVESGGGLVQAGGSLRLSCAASGRIFTGNAMGWYRQAPGKERELVASITYSDGSTYYADSVKGRFTISRDNAKNTVYFQMNSLKPEDTAVYYCAADILWGQGTQVTVSS", "polyreactivity (PSR sort gate)": "low polyreactivity"}
{"sequence": "QVQLVESGGGLVQAGGSLRLSCAASGRIFTGNVMGLYRQAPGKERELVAAITYRGGSTYYADSVKGRFTISRDNAKNTVYLQMNSLKPEDTAVYYCNTGWDPYGYDYWGQGTQVTVSS", "polyreactivity (PSR sort gate)": "low polyreactivity"}
{"sequence": "QVQLVESGGGLVQAGGSLRLSCAASGRIFTGNVMGWYRQAPGKERELVAAISVSGGRTYYADSVKGRFTISRDNAKNNVYLQMNSLKPEDTAVYYCNARFSRVWYGGDYWGQGTQVTVSS", "polyreactivity (PSR sort gate)": "high polyreactivity"}
{"sequence": "QVQLVESGGGLVQAGGSLRLSCAASGRIFTGYAMGWYRQAPGKERELVATIRSRGGGTYYADSVKGRFTISRDNAKNTVYLQMNSLKPEDTAVYYCAADDYYYYFGTRYGYWRQGTQVTVSS", "polyreactivity (PSR sort gate)": "low polyreactivity"}
{"sequence": "QVQLVESGGGLVQAGGSLRLSCAASGRIFTHNVMGWYRQAPGTERELVAAISGGGGSTYYADSVKGRFTLSRDNAKNNVYKQMNSLKPEDTAVYYCAKDNHYEADRYDYWGQGTQVTVSS", "polyreactivity (PSR sort gate)": "low polyreactivity"}
{"sequence": "QVQLVESGGGLVQAGGSLRLSCAASGRIFTINAMGWYRQAPGKERELVASIRSTGGSTYYADSVKGRFTISRDNAKNTVYLQMNSLKPEDTAVYYCAADGGVAWGYGYWGQGTQVTVSS", "polyreactivity (PSR sort gate)": "low polyreactivity"}
{"sequence": "QVQLVESGGGLVQAGGSLRLSCAASGRIFTIYAMGWYRQAPGKERELVAAISDRGTRTYYADSVKGRFTISRDNAKNTVYLQMNSLKPEDTAVYYCATDALYTYGYYYWGQGTQVTVSS", "polyreactivity (PSR sort gate)": "low polyreactivity"}
{"sequence": "QVQLVESGGGLVQAGGSLRLSCAASGRIFTIYAMGWYRQAPGKERELVAAITRGGNTNYADSVKGRFTISRDNAKNTVYLQMNSLKPEDTAVYDGAVGSRSWPYDYWGQGSQVTVSS", "polyreactivity (PSR sort gate)": "high polyreactivity"}
{"sequence": "QVQLVESGGGLVQAGGSLRLSCAASGRIFTIYAMGWYRQAPGKERELVATISRRGGSTYYADSVKGRFTISRDNAKNTVYFQMNSLKPEETAVYYCAADSVITWWAYDYWGQGTQVTVSS", "polyreactivity (PSR sort gate)": "high polyreactivity"}
{"sequence": "QVQLVESGGGLVQAGGSLRLSCAASGRIFTIYSMGWYRQAPGKERELVATISKSGGITYYADSVKGRFTISRDNAKNTVYLQMNSLKPEDTAVYYCAAAWYYSSRGFHATWGHDYWGQGTQVTVSS", "polyreactivity (PSR sort gate)": "low polyreactivity"}
{"sequence": "QVQLVESGGGLVQAGGSLRLSCAASGRIFTIYTMGWYRQAPGKERELVAAISVNGGRTYYADSVKGRFTISRDNAKNTVYLQMNSLKPEDTAVYYCAARRRFGYHQQRYDYWGQGTQVTVSS", "polyreactivity (PSR sort gate)": "high polyreactivity"}
{"sequence": "QVQLVESGGGLVQAGGSLRLSCAASGRIFTLYTMGWYRQAPGKERELVARITRSGGTTYYADSVKGRFTISRDNSKNTVYLQMNSLKPEDTAVYYCNVDDYFWPGAKFDYWGQGTQVTVSS", "polyreactivity (PSR sort gate)": "low polyreactivity"}
{"sequence": "QVQLVESGGGLVQAGGSLRLSCAASGRIFTPNAMGWCRQAPGKERELVAAITWSGDNTYADSVKGRFTISRDNAKNTVYLQMNSLKPEDTAVYYCAAAYGYGHKKYGYWGQGTQVTVSS", "polyreactivity (PSR sort gate)": "low polyreactivity"}
{"sequence": "QVQLVESGGGLVQAGGSLRLSCAASGRIFTPYAMGWYRQAPRKERELVAVIRDGSTYYADSVKGRFTISRDNAKYNVYLQMKSLIPEDTAVYYCRYDIWVWWSGAYDYWGQGTQVTVSS", "polyreactivity (PSR sort gate)": "low polyreactivity"}
{"sequence": "QVQLVESGGGLVQAGGSLRLSCAASGRIFTPYAMGWYRQAPVKERELVAVIRDGSTYYADSVKGRFTISRDNAKNTVDLLMNSLKPEDTAVYYCRYDIWVWWSGAYDYWGQGTQVTVSS", "polyreactivity (PSR sort gate)": "low polyreactivity"}
{"sequence": "QVQLVESGGGLVQAGGSLRLSCAASGRIFTQYTMGWYRQAPGKERELVAAISRGGGSTYYADSVKGRFTISRDNAKNTVYLQMNSLKPEDTAVYYCAAIRREVVAGDYWGQGTQVTVSS", "polyreactivity (PSR sort gate)": "high polyreactivity"}
{"sequence": "QVQLVESGGGLVQAGGSLRLSCAASGRIFTRNAMGWYRPAPGKERELVAAISSRGGSTYYADSVKGRFTISRDNAKNTVYLQMNSLKPEDTAVYYCAAGYWATYDYWGQGTQVTVSS", "polyreactivity (PSR sort gate)": "high polyreactivity"}
{"sequence": "QVQLVESGGGLVQAGGSLRLSCAASGRIFTRNAMGWYRQAPGKERELVAAISNGGRTNYADSVKGRFTISRDNAKYTVYLQMNSLKPEDTAVYYCNARYLPRSTIYDYWGQVTQVTVSS", "polyreactivity (PSR sort gate)": "high polyreactivity"}
